US20060251661A1

Biological target: OVA peptide 257-264 (SIINFEKL) presented on MHC class I molecule K^b of antigen presenting cells (mouse; chicken)
Experiment: cell-based or functional assay

% of B3Z cells activated (lacZ reporter, flow cytometry); lymph node cells of mice with B16/OVA tumors injected with α-gal glycolipids: 1.07 to 3.66%
% of B3Z cells activated (lacZ reporter, flow cytometry); lymph node cells of mice with PBS treated B16/OVA tumors: 0 to 0.14%
Substance: α-β T cell receptor (TCR) of B3Z CD8+ T hybridoma cells, specific for OVA257-264 presented on K^b
